The record followed here is patent publication US20200157212A1 (Pfizer, published 2020).

Substitutions are numbered along the chain they refer to.

T1: Terbium (Tb) labeled-SNAP tagged ROBO2 expressed on HEK293 cells (Homo sapiens (Human), UniProt Q9HCK4 22-1378, terbium label on the SNAP tag)
T1 construct: also called Tb-labeled ROBO2 cells; ROBO2 expressing cells; not shown: SNAP tag
T1 sequence: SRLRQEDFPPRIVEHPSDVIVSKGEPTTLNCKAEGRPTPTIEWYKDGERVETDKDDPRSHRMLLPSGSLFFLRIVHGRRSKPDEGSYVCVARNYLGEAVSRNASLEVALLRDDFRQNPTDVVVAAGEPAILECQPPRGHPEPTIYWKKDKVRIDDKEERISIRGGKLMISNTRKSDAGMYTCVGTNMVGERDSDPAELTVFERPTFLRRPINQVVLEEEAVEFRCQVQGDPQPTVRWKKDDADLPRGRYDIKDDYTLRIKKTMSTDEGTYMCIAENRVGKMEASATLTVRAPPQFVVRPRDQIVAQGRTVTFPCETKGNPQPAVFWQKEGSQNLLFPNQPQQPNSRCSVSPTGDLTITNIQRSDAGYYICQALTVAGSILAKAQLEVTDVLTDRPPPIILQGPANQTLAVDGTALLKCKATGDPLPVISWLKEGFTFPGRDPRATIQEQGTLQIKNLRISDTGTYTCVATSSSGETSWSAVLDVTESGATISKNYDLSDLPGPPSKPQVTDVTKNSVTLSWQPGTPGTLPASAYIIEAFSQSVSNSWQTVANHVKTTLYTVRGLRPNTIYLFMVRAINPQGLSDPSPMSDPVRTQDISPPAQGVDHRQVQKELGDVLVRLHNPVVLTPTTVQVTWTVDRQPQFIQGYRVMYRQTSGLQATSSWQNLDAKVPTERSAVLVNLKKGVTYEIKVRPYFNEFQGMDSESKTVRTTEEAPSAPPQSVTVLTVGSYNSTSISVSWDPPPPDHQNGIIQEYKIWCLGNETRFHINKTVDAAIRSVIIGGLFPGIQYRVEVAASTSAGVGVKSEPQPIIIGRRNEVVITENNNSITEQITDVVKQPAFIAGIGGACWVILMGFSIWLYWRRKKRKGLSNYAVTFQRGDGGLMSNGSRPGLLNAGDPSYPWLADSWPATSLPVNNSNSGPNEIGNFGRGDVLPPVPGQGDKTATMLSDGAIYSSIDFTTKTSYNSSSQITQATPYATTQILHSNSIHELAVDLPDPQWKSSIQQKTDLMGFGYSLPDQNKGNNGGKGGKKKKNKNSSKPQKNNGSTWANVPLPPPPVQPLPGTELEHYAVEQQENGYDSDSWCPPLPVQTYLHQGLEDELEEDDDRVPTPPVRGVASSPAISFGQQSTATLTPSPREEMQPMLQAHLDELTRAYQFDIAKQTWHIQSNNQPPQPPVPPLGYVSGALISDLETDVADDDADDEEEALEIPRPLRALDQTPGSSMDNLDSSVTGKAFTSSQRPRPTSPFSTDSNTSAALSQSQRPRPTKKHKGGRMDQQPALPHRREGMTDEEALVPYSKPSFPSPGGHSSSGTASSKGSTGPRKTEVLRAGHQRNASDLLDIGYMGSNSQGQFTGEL

T2: Human ROBO2 overexpressed on HEK293 cells (human, UniProt Q9HCK4 22-1378)
T2 construct: also called ROBO2 cells; native ROBO2
T2 sequence: T1 sequence

B1: Ab58 (antibody, human IgG1, kappa, V domains shown)
VH: EVQLVQSGAEVKKPGASVKVSCKASGYTFTGYYMHWVRQAPGQGLEWMGWINPKDGDTEFPQKFQGRVTMTRDTSITTAYMDLSRLRSDDTAVYYCARESGDDAFDIWGQGTMVTVSS
VL: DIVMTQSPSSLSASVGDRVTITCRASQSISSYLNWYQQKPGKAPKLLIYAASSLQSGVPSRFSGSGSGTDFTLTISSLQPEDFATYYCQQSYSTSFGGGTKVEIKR
notes: full-length human IgG
B2: Ab29 (antibody, human IgG1, kappa, V domains shown)
VH: B1 VH with W50A, N52D, D55S, D57T, E59M
VL: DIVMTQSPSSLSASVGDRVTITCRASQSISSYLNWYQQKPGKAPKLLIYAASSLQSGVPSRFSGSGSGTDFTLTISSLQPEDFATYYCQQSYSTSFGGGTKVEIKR
notes: full-length human IgG
B3: Ab40 (antibody, human IgG1, kappa, V domains shown)
VH: B1 VH with K54N, D55S, D57A, E59N
VL: DIVMTQSPSSLSASVGDRVTITCRASQSISSYLNWYQQKPGKAPKLLIYAASSLQSGVPSRFSGSGSGTDFTLTISSLQPEDFATYYCQQSLELGFGGGTKVEIKR
notes: full-length human IgG
B4: Ab112 (antibody, human IgG1, kappa, V domains shown)
VH: B1 VH with K54N, D55S, D57A, E59N
VL: B3 VL with L92V, E93G, G95S
notes: full-length human IgG
B5: Ab22 (antibody, human IgG1, kappa, V domains shown)
VH: B1 VH with K54R, D55S, D57A, E59N
VL: B3 VL with S56Y, L92Y, E93S, L94T, G95S
notes: full-length human IgG
B6: Ab83 (antibody, human IgG1, kappa, V domains shown)
VH: B1 VH with K54R, D55N, D57I, E59S
VL: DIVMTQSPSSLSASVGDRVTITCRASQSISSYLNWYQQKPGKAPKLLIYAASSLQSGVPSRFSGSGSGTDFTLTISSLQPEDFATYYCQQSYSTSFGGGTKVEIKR
notes: full-length human IgG
B7: Ab32 (antibody, human IgG1, kappa, V domains shown)
VH: B1 VH with W50A, N52D, D55L, D57I, E59I
VL: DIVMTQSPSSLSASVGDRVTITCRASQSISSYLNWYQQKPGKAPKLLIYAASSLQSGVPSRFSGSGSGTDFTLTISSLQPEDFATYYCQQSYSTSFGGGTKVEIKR
notes: full-length human IgG
B8: Ab46 (antibody, human IgG1, kappa, V domains shown)
VH: B1 VH with W50A, N52D, D55H, D57F, E59I
VL: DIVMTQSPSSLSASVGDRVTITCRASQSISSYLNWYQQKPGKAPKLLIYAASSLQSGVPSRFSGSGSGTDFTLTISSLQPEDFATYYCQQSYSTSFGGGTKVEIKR
notes: full-length human IgG
B9: Ab3 (antibody, human IgG1, kappa, V domains shown)
VH: B1 VH with D55S, D57A, E59N
VL: B3 VL with S28K, L92Y, E93S, L94T, G95S
notes: full-length human IgG
B10: Ab1 (antibody, human IgG1, kappa, V domains shown)
VH: B1 VH with Y33D, K54N, D55S, D57A, E59N
VL: B3 VL with S28K, L92Y, E93S, L94T, G95S
notes: full-length human IgG
B11: Ab13 (antibody, human IgG1, kappa, V domains shown)
VH: B1 VH with Y33D, K54N, D55S, D57A, E59N
VL: B3 VL with S56D, L92Y, E93S, L94T, G95S
notes: full-length human IgG
B12: Ab9 (antibody, human IgG1, kappa, V domains shown)
VH: B1 VH with Y33D, K54N, D55S, D57A, E59N
VL: B3 VL with S28R, L92Y, E93S, L94T, G95S
notes: full-length human IgG

The target in one test is T1, Terbium (Tb) labeled-SNAP tagged ROBO2 …. The test can be described thus: HTRF competition, competitor d2-SLIT2-N, ROBO2 HEK293 cells. The procedure:
(§1) Antibodies generated as a result of the affinity maturation campaign were screened by numerous assays for neutralization of SLIT2-N binding, selective binding to ROBO2 over ROBO1, and inhibition of SLIT2-N functional activity (see Table 2). A ROBO2-SLIT2-N homogenous time resolved fluorescence (HTRF) assay was used to identify antibodies that were capable of blocking SLIT2-N binding to ROBO2. In this assay, terbium (Tb) labeled-SNAP tagged ROBO2 expressing HEK293 cells were incubated with 5 nM d2-labeled SLIT-2N in the presence of 1 nM anti-ROBO2 antibodies for 1 hour. After incubation, fluorescence at 665 nm and 620 nm was measured on an Envision multilabel plate reader. […] Maximal signal was defined as the HTRF ratio of Tb-labeled ROBO2 cells with d2-labeled SLIT2-N in the absence of antibody, the minimum signal was defined as the HTRF ratio of Tb-labeled ROBO2 expressing HEK293 cells only. One nanomolar (nM) parental antibody, 93H2, was unable to block the HTRF assay, therefore this concentration was selected to identify clones with a higher affinity than 93H2 (Table 2, HTRF Ratio column). […] Antibodies derived from chain (Abcs series) or CDR shuffling (CTIR-2 series) were evaluated in 11-point, 5-fold dilution series with a top concentration of 1500 nM (Table 2 HTRF IC₅₀).
Regarding B1, the IC50 – broadly, the point on the concentration scale where inhibition reaches its midpoint – turned out to be 0.282 nM.

B2 had an IC50 of 0.097 nM.

The molecule B3 yielded an IC50 of 0.728 nM. This IC50 lies about 7.5-fold higher than the previous one.

As to B4, the IC50 is 0.174 nM.

B5: the IC50 stood at 0.229 nM.

Take B6: the IC50 amounted to 0.437 nM. Compared with the last molecule, the IC50 is about 1.9-fold higher.

In turn, B7 showed an IC50 of 0.234 nM.

The molecule B8 displayed an IC50 of 0.109 nM.

In turn, B9 displayed an IC50 of 0.133 nM. The IC50 values of the last two molecules are within 1.5-fold of each other.

Another test deals with T2, Human ROBO2 overexpressed on HEK293 …. As to the kind of experiment: flow cytometry on HEK293 cells overexpressing human ROBO2; N.B. = No binding to ROBO2. As for the experimental part: The parental 93H2 antibody was highly ROBO2 specific, therefore affinity matured antibodies with single point neutralizing activity were screened by flow cytometry to ensure ROBO2 selectivity had been maintained. […] Binding of the antibodies was detected using a secondary fluorochrome conjugated anti-human IgG F(ab′)₂ antibody and samples were analyzed on a Fortessa cytometer (BD Biosciences). The fold ROBO2 selectivity was calculated as the geometric mean fluorescence intensity (Geo MFI) with ROBO2 cells/Geo MFI with ROBO1 cells. A fold change higher than 3 was considered to be ROBO2 specific (Table 2, Fold Selectivity). Some affinity matured clones had increased ROBO1 reactivity, for example Abcs 55, CTI-R2-10 and CTIR2-13.
Table 2 is a summary of assays used to screen antibodies against ROBO1 and/or ROBO2 to identify an antibody that specifically recognized ROBO2 but not ROBO1 with high affinity. […] Full dose curves were performed in the same assay for select antibodies. Recognition of native, surface expressed protein and ROBO2 selectivity was evaluated by flow cytometry. […] Anything with a value of greater than 3 was deemed to be selective for ROBO2. Outcomes of the various screening assays conducted for each antibody are highlighted in the final column.
Take B10: the binding result is recorded as “no binding (tested: 0.1 µg/ml)”.

For B11, the binding result is listed as “no binding (tested: 0.1 µg/ml)”.

Regarding B12, the binding result was “no binding (tested: 0.1 µg/ml)”.

For a further test the target is unchanged. The test can be described thus: flow cytometry, Geo MFI ROBO2/ROBO1 HEK293 cells, 0.1 µg/ml. As for the experimental part: Binding of the antibodies was detected using a secondary fluorochrome conjugated anti-human IgG F(ab′)₂ antibody and samples were analyzed on a Fortessa cytometer (BD Biosciences). The fold ROBO2 selectivity was calculated as the geometric mean fluorescence intensity (Geo MFI) with ROBO2 cells/Geo MFI with ROBO1 cells. A fold change higher than 3 was considered to be ROBO2 specific (Table 2, Fold Selectivity). Some affinity matured clones had increased ROBO1 reactivity, for example Abcs 55, CTI-R2-10 and CTIR2-13.
HTRF assays were run with 5 nM d2-labeled SLIT2-N and antibodies were added at 1 nM. […] Antibodies derived from chain (Abcs series) or CDR shuffling (CTIR-2 series) were evaluated in 11-point, 5-fold dilution series with a top concentration of 1500 nM, N.T. = not tested; ^cFold selectivity was calculated as Geometric Mean Fluorescent Intensity (Geo MFI) of ROBO2/Geo MFI of ROBO1 binding. […] Outcomes: results are listed in order of assays listed in the table (left to right), I.A. = Improved Affinity
In general terms: Flow cytometry measures light scatter and fluorescence of single cells or particles in a stream.
For the molecule B1, the “Fold Selectivity for ROBO2/ROBO1” value came to 21.8 fold.

For B2, the “Fold Selectivity for ROBO2/ROBO1” value was more than 100 fold.

Take B3: the “Fold Selectivity for ROBO2/ROBO1” value was more than 100 fold.

Consider B4, for which the “Fold Selectivity for ROBO2/ROBO1” value was 39.2 fold.

With B5, the “Fold Selectivity for ROBO2/ROBO1” value was determined as 67.4 fold.

With B6, the “Fold Selectivity for ROBO2/ROBO1” value is 40.6 fold.

In the case of B7, the “Fold Selectivity for ROBO2/ROBO1” value was determined as 90.3 fold.

On to B8, for which the “Fold Selectivity for ROBO2/ROBO1” value is more than 100 fold.

With B9, the “Fold Selectivity for ROBO2/ROBO1” value turned out to be 92 fold.

Another test deals with T1, Terbium (Tb) labeled-SNAP tagged ROBO2 …. The test can be described thus: HTRF, 5 nM d2-SLIT2-N on Tb-SNAP-ROBO2 HEK293 cells, 1 nM antibody. As for the experimental part:
as §1, with “In” for “Antibodies generated as a result of the affinity maturation campaign were screened by numerous assays for neutralization of SLIT2-N binding, selective binding to ROBO2 over ROBO1, and inhibition of SLIT2-N functional activity (see Table 2). A ROBO2-SLIT2-N homogenous time resolved fluorescence (HTRF) assay was used to identify antibodies that were capable of blocking SLIT2-N binding to ROBO2. In”
HTRF assays were run with 5 nM d2-labeled SLIT2-N and antibodies were added at 1 nM. […] Antibodies derived from chain (Abcs series) or CDR shuffling (CTIR-2 series) were evaluated in 11-point, 5-fold dilution series with a top concentration of 1500 nM, N.T. = not tested; ^cFold selectivity was calculated as Geometric Mean Fluorescent Intensity (Geo MFI) of ROBO2/Geo MFI of ROBO1 binding.
On the technique in general: TR-FRET usually uses a lanthanide donor and a delayed reading to cut background.
Regarding B10, the “HTRF Ratio” value was 14000.

For the molecule B1, the “HTRF Ratio” value came out at 5570.

As for B2, the “HTRF Ratio” value amounted to 7730.

In the case of B3, the “HTRF Ratio” value amounted to 7430.

Take B11: the “HTRF Ratio” value amounted to 13800.

For the molecule B4, the “HTRF Ratio” value worked out at 7300.

Consider B5, for which the “HTRF Ratio” value was 5730.

Consider B6, for which the “HTRF Ratio” value was determined as 4770.

Consider B7, for which the “HTRF Ratio” value came out at 6000.

For B8, the “HTRF Ratio” value amounted to 5710.

Take B9: the “HTRF Ratio” value was determined as 6610.

Turning to B12, the “HTRF Ratio” value worked out at 13600.
